Reference: patent US20220226473A1, “Nucleic acid nanocarrier drug and preparation method thereof, pharmaceutical composition and application thereof” (BAI YAO ZHI DA (BEIJING) NANOBIO TECHNOLOGY CO., LTD., priority 2018, published 2022)
{Biotin} = biotin of the strand

Experiments:
[1] = Electric potential (zeta potential) measurement of self-assembly products; assay type: physicochemical; details: result over 3 detections, at 25 DEG C.
Description: Measurement method: preparing a potential sample (the self-assembly product is dissolved in ultrapure water) and putting into a sample pool, opening a sample pool cover of an instrument, and placing the instrument;
opening software, clicking a menu MeasUre€ManUal, so a manual measurement parameter setting dialog box appears;
setting a software detection parameter;
and then clicking Ok to complete the settings, after a measurement dialog box appears, clicking start to start.
and then clicking Ok to complete the settings, after a measurement dialog box appears, clicking Start to start.
Measurement method: preparing a potential sample (the self-assembly product is dissolved in ultrapure water) and putting into a sample pool, opening a sample pool cover of an instrument, and placing the instrument:
Measurement result potential detection results of the 7 groups of the extension fragment deformation+core short-sequence RNA nanoparticles at 25 DEG C. are as follows:
setting a software detection parameter; and then
clicking Ok to complete the settings, after a measurement dialog box appears, clicking Start to start.
Measurement result potential detection results of the 7 groups of the extension fragment deformation+core short-sequence DNA nanoparticles at 25 DEG C. are as follows: […]

[2] = Particle size measurement (DLS hydrodynamic size); assay type: physicochemical; details: DLS hydrodynamic size
Excerpt: 1. Preparing a potential sample (conventional-sequence DNA self-assembly product D-7) and putting into a sample pool, opening a sample pool cover of an instrument, and placing the instrument;
2. opening software, and clicking a menu, so a manual measurement parameter setting dialog box appears;
3. setting a software detection parameter; and then
4. clicking Ok to complete the settings, when a measurement dialog box appears, clicking Start to start, a DLS measurement value result of a hydrodynamic size of the self-assembly product D-7 is shown below in Table 40: […]

[3] = TM value detection by solubility curve method (SYBR Green I); assay type: physicochemical
Description: A solubility curve method is used to detect TM values of the 7 groups of the extension fragment deformation+core short-sequence RNA nanoparticles, and the samples are consistent with the potential samples.
(1) After the sample is diluted with ultrapure water, 5 μg of the diluted sample is mixed with 2 μL of SYBR Green I dye (diluted by 1:200), a final volume is 20 μL, and the dilution concentration is as follows:
(2) It is incubated for 30 min in the dark at a room temperature; and
(3) On-machine detection is performed, a program is set to start at 20 DEG C., the temperature rises per second from 0.1 DEG C. to 95 DEG C., and reading is performed every 5 s.
Due to the particularity of the RNA samples, a temperature corresponding to ½ RFUmax in a range of 20 to 90 DEG C. is used as a sample Tm value in this test.
A solubility curve method is used to detect TM values of the 7 groups of the extension fragment deformation+core short-sequence DNA nanoparticles, and the samples are consistent with the potential samples.
(1) After the sample is diluted with ultrapure water, 5 μg of the diluted sample is mixed with 2 μL of SYBR Green I dye (diluted by 1:200). a final volume is 20 μL, and the dilution concentration is as follows: […]

[4] = Drug loading rate of nucleic acid nanoparticles (chemical loading, absorbance standard curve); assay type: physicochemical; parameters: unit not given here; details: chemical loading method of Embodiment 5
Excerpt: According to the chemical loading method (unless otherwise specified, the method is the same as that of Embodiment 5) of Embodiment 5, the RNA nanoparticles formed by the self-assembly of the previous R-15, R-16, R-17, R-18, R-19, R-20 and R-21 in Embodiment 9, and the DNA nanoparticles formed by the self-assembly of the D-8, D-9, D-10, D-11, D-12, D-13 and D-14 in Embodiment 10 are respectively used as doxorubicin loading carriers, doxorubicin loading rates measured are respectively as follows:
According to the chemical loading method (unless otherwise specified, the method is the same as that of Embodiment 5) of Embodiment 5, the DNA nanoparticles formed by the self-assembly of the previous D-10 and D-14 in Embodiment 10 are used as a daunorubicin loading carrier.
According to a chemical loading method of Embodiment 5 (unless otherwise specified, the method is the same as that of Embodiment 5, the same molar number of the epirubicin is used as a loading amount), nucleic acid nanoparticles (a molecular weight is 29550, it is similar to the RNA nanoparticles in Embodiment 1, and a difference is that a fluorescent label on a c-strand is Cy5) are used as a carrier, and respectively loaded with: epirubicin, methotrexate, pirarubicin, daunorubicin, […], 10-hydroxycamptothecin, aspirin and gemcitabine.
Herein, when a standard curve is drawn, the absorbance of the above drugs on the microplate reader is measured respectively. The absorbance of the epirubicin, methotrexate, pirarubicin, daunorubicin, […], 10-hydroxycamptothecin, aspirin and gemcitabine is respectively detected at the following wavelengths: 492 nm, 303 nm, 492 nm, 492 nm, 265 nm, 384 nm, 225 nm and 268 nm. The standard curves obtained correspondingly are respectively shown in FIG. 48a, FIG. 49, FIG. 50sa, FIG. 51, FIG. 52, FIG. 53, FIG. 54a and FIG. 55. […]

[5] = tested on: HepG2 cells; assay: Cell binding of DNA nanoparticles and carrier drugs by FACS; assay type: cell-based; details: incubated at 37 DEG C. for 2 h, flow cytometry
Description: 1. A cell state is adjusted to a logarithmic growth phase, the medium is changed into a medium without biotin and folic acid, and it is incubated overnight in an incubator at 37 DEG C.
2. After incubation, cell suspension is trypsinized and collected, and centrifuged at 1000 rpm for 5 min, after the concentration is adjusted, a 2×10^6-5×10^6 cell/EP tube is taken and washed twice with 1 mL/tube of 1% BSA-PBS, and cells at the bottom of the tube is observed to prevent them from being absorbed.
3. A substance to be tested is dissolved, and the substance to be tested is diluted to a use concentration.
4. Cell supernatant is absorbed, 100 μL of a corresponding sample is added to each tube in order, light is avoided, and it is incubated at 37 DEG C. for 2 h.
5. It is washed twice with 1% BSA-PBS; and centrifuged at 1000 rpm for 5 min.
6. Finally, it is precipitated with 300 μL of PBS cell resuspension, and flow Cytometric on-machine detection (the blank carrier used in the present embodiment is labeled by Quasar670, and the doxorubicin in the carrier drug has its own fluorescence, so the detection may be performed through FL4-APC and FL2-PE respectively) is performed.

[6] = tested on: HepG2 cells; assay: CCK8 toxicity of DNA nanoparticles and carrier drugs; assay type: cell-based; details: HepG2, CCK8, 72 hours
Description: A CCK8 method is used to detect the toxicity of DNA nanoparticles and carrier drugs to HepG2.
2. A sample to be tested is diluted according to the following table and added: the original culture medium is removed and 100 μL of a culture medium of the sample to be tested with the different concentration is added, and there are 3 replicate wells in each group.
In the present embodiment, the loaded drug and the blank carrier are firstly prepared into 100 μM of stock solution using the PBS, and then diluted with the complete culture medium (biotin-free DMEM). The original drug doxorubicin is firstly prepared into 100 NM of stock solution by using the DMSO, and then diluted with the complete culture medium (biotin-free DMEM). The DMSO is directly diluted with the complete medium (biotin-free DMEM).
3. After the sample to be tested is added, the 96-well plate is placed in an incubator under 37 DEG C. and 5% CO2 and incubated for 72 hours.
4. A kit is taken out and melted at a room temperature, 10 μL of CCK-8 solution is added to each wall, or the CCK8 solution is nixed with the culture medium at a ratio of 1:9, and then added to the well in an amount of 100 μL/well.
5. It is continuously incubated in the cell incubator for 4 hours, and a length of time depends on experimental conditions such as a cell type and a el density.
6. A microplate reader is used to measure an absorbance at 450 nm.
7. Calculation: cell viability (%)=(OD experimental group−OD blank group)[…]/(OD control group−OD blank group), IC50 is calculated by GraphPad Prism 5.0.

[7] = RNA nanoparticles, temperature corresponding to ½ RFUmax in 20 to 90 DEG C.

Molecule	Potential ZP, Experiment result [1] [mV]	Mean particle size (nm) [2]	TM value (° C.) [3, 7] [°C]	doxorubicin loading rate [4]	Positive rate ([5]; HepG2, 1 μM) [%]	Positive rate ([5]; HepG2, 2 μM) [%]	IC50 [6] [µM]	TM value (° C.) ([3]; DNA nanoparticles) [°C]
R-17: extension fragment deformation+core short-sequence RNA nanoparticle, SEQ ID NO: 126-128, 3′ biotin, 2′F (nucleic acid, chain 1: 2'-fluoro at CU, RNA at AG, 3' {Biotin}, backbone not given here; chain 2: 2'-fluoro at CU, RNA at AG, backbone not given here; chain 3: 2'-fluoro at CU, RNA at AG, backbone not given here; three-strand RNA nanoparticle) chain 1: GCGGCGAGCGGCGAGGAGCGUUGGGGCCGGAGGCCGG chain 2: CCGGCCUCCGGCCCCUUCGCCGCCAGCCGCC chain 3: GGCGGCAGGCGGCCAUAGCCCUCGCCGCUCGCCGC	−23.50	7.592 nm	55.2	30.9	–	–	–	–
R-18: extension fragment deformation+core short-sequence RNA nanoparticle, SEQ ID NO: 129-131, 3′ biotin, 2′F (nucleic acid, chain 1: 2'-fluoro at CU, RNA at AG, 3' {Biotin}, backbone not given here; chain 2: 2'-fluoro at CU, RNA at AG, backbone not given here; chain 3: 2'-fluoro at CU, RNA at AG, backbone not given here; RNA nanoparticle drug carrier) chain 1: GCGGCGAGCGGCGAGCAGCGUUCGGGCCGGAGGCCGG chain 2: CCGGCCUCCGGCCCGUUCGGCGCCAGCCGCC chain 3: GGCGGCAGGCGCCCAUAGCGCUCGCCGCUCGCCGC	−21.27	7.520 nm	54.5	34.1	–	–	–	–
R-21: extension fragment deformation+core short-sequence RNA nanoparticle, SEQ ID NO: 138-140, 3′ biotin, 2′F (nucleic acid, chain 1: 2'-fluoro at CU, RNA at AG, 3' {Biotin}, backbone not given here; chain 2: 2'-fluoro at CU, RNA at AG, backbone not given here; chain 3: 2'-fluoro at CU, RNA at AG, backbone not given here; three-strand RNA nanoparticle carrier) chain 1: GCGGCGAGCGGCGACGAGCGUUGCGGCCGGAGGCCGG chain 2: CCGGCCUCCGGCCGCUUCGGCGCCAGCCGCC chain 3: GGCGGCAGGCGCCCAUAGCCGUCGCCGCUCGCCGC	−16.10	6.720 nm	65.0	20.1	–	–	–	–
R-19: extension fragment deformation+core short-sequence RNA nanoparticle, SEQ ID NO: 132-134, 3′ biotin, 2′F (nucleic acid, chain 1: 2'-fluoro at CU, RNA at AG, 3' {Biotin}, backbone not given here; chain 2: 2'-fluoro at CU, RNA at AG, backbone not given here; chain 3: 2'-fluoro at CU, RNA at AG, backbone not given here; three-strand RNA nanoparticle carrier) chain 1: GCGGCGAGCGGCGAGCAGCGUUCGGGCCGGAGGCCGG chain 2: CCGGCCUCCGGCCCGUUCGGCCCCAGCCGCC chain 3: GGCGGCAGGGGCCCAUAGCGCUCGCCGCUCGCCGC	−18.30	6.936 nm	54.0	27.1	–	–	–	–
R-20: extension fragment deformation+core short-sequence RNA nanoparticle, SEQ ID NO: 135-137, 3′ biotin, 2′F (nucleic acid, chain 1: 2'-fluoro at CU, RNA at AG, 3' {Biotin}, backbone not given here; chain 2: 2'-fluoro at CU, RNA at AG, backbone not given here; chain 3: 2'-fluoro at CU, RNA at AG, backbone not given here; three-strand RNA nanoparticle carrier) chain 1: GCGGCGAGCGGCGACGAGCGUUGCGGCCGGAGGCCGG chain 2: CCGGCCUCCGGCCGCUUCGCCGCCAGCCGCC chain 3: GGCGGCAGGCGGCCAUAGCCGUCGCCGCUCGCCGC	−17.90	7,110 nm	59.5	30.2	–	–	–	–
D-8: extension fragment deformation+core short-sequence DNA nanoparticle, SEQ ID NO: 141-143, a-strand 3′ biotin (nucleic acid, chain 1: DNA, 3' {Biotin}, backbone and methylation of C not given here; chain 2: DNA, backbone and methylation of C not given here; chain 3: DNA, backbone and methylation of C not given here; three-strand DNA nanoparticle carrier) chain 1: GCGGCGAGCGGCGAGGAGCGTTGGGGCCGGAGGCCGG chain 2: CCGGCCTCCGGCCCCTTCGGGGCCAGCCGCC chain 3: GGCGGCAGGCCCCCATAGCCCTCGCCGCTCGCCGC	−30.23	7.460 nm	–	28.0	96.9	98.4	> 1	48.5
